In the DeepSol protein solubility set:

Experiment: soluble on expression in E. coli; label from the status in PepcDB or PDB records

Sequence | soluble on expression in E. coli
MTKPLILASQSPRRKELLDLLQLPYSIIVSEVEEKLNRNFSPEENVQWLAKQKAKAVADLHPHAIVIGADTMVCLDGECLGKPQDQEEAASMLRRLSGRSHSVITAVSIQAENHSETFYDKTEVAFWSLSEEEIWTYIETKEPMDKAGAYGIQGRGALFVKKIDGDYYSVMGLPISKTMRALRHFDIRA | soluble
MSLLQEMTIKNFAIIESLSLTFQEGMTVLTGETGAGKSIIIDALGLLVGGRGSADFIRHGEERLELQGLFALAEDNLACRNALIENGIDASDDMVVLERSLFRSGKNSCRINGKLVTTVLLRQIGSKLIDIHSQHEHQELMNEEFHLSLLDRFASDKIKPALTKYQTNFKEYQTIEKEWQNWTKNERELAQRLDMLRFQQQEIENANLQAGEEDRLLEQKNILANFEKLNENLQGAYAAIQGEPGGLEFVGEAMRQMEAAASIHTDYKAVSEAISSSYYMLEDSMSQIRQSLDQLEFQPEELNQIESRLNDLNQLKRKYGKTIEDIIQYEQEISSEMEKLTDSESHVGHLETKLATLKAELTKQANTLTEIRKKAAVTLEKQIKQELNHLYMEKAIFSVRFEANKMELTDSGQDSVVFYMSTNPGEPLKPLAKIASGGELSRMMLALKTIFSRHQGITSIIFDEVDTGVSGRVGQAIAEKIYAVSVGSQVLCISHLPQVAAMANHHYYITKKVQNKRTTTSVTVLKGEEKVEEISRMIAGIEVTELTKQHAKEMIEQAEKVKQTYEGHHHHHH | soluble
MAHHHHHHMRGCLHFTRVARHKRHDKGGNAHNFAFDTLTKVYRDAVYLPQEKYRRGLMHPERSPGAPPSQAALVAPSSSSDVTNHVGNIGVMSSVATKLSDWMEQQPHHQTKHHTNGGGGTGHASATASCATPIARRSVASSSPSPAPSAAAATTDESHVDDEAIRRRLRAHLFSDKIQPGQPRTPPSTPVATASASPRRSGVQAEILSVYRSMLREVSRMQDADTRRSLSAYIRQEYDKQCDIPRKNIMKIEWRLNYGKRKLEELQAMSKHTKFTMMR | not soluble
MSSKNTAEVILGGKVIKLGGYESEEYLQRVASYINNKITEFNKEESYRRMSAELRTDMMYLNIADDYFKAKKMADSLSLDIENKDKEIYDLKHELIAAQIKAESSAKEIKELKSEINKYQKNIVKLETELNDSKK | soluble
MGGIYRLSLKSTEATAERLSCDTRCNYEDRDLAYSPDGRWLAIARRFSNISEDIFIRDLASAHEKRLTQGLEDIRGLSWTPDSQALVFATEDSGSSNGFTLDINTAQIRSLDVEGMSYPSSVSAEGELVYHQYHRQFQMAYFSLGDKVPGSLFPLLYSGVSHRNPDYSPEAKRIVFVSSETGYNEIWTSDINGQKLEQLTQLKSRVAYPRWSPDGSRIAFIAPDDRNEGNRIFILDLTNKNITALASSYHNHGRPSWNWQGTAVLASTADGITEFYLDNRAPRVISSLSMAVGFAKSATELVFSRDGENGLWQINLTQPEHVEQLISTDAFRAGNNWVLTASGVYFKSSNGHEQLLNYWEASSQQVTSLLRVPRSSLSGFGSMTYIPEANRLVMTLDGFPQRDIILLKHKLLKLEHHHHHH | soluble
MCASFAKFAERWNPLPETLLSWSKNNCDKVQPRPRDMSCEDVVQFVADCNFSGGGPGPGKLADTTNRQVADTFYQRTYENSPRVLPKYIYYNENTARDYGQFGNWYYPNYYPPTYLGFFDGRPASMAQLENDYKFAKGGHYPYNRADNIVNIGLQQTYLPTCLHDLFYCVRASNGQRPQAYLNYKEYRRDRDQAAEQMAQRDQDIKTLRRHRTRHHEDDE | not soluble
QVQLQQSGAELMKPGASVKISCKATGYTFSSFWIEWVKQRPGHGLEWIGEILPGSGGTHYNEKFKGKATFTADKSSNTAYMQLSSLTSEDSAVYYCARGHSYYFYDGDYWGQGTSVTVSSASTKGPSVFPLAPSSKSTSGGTAALGCLVKDYFPEPVTVSWNSGALTSGVHTFPAVLQSSGLYSLSSVVTVPSSSLGTQTYICNVNHKPSNTKVDKKVEPK | soluble
MNNSSNADSQEGSTSAQKQKTANPSESRPFVLKKWNALAVWAWDVECDTCAICRVHLMEECLRCQSEPSAECYVVWGDCNHSFHHCCMTQWIRQNNRCPLCQKDWVVSRTSK | not soluble
MRRLGKQEIEDIAVGAALLGTGGGGDPYIGKLMALQAIEEYGPIQLLSVDEIDDEAVVVPSGMMGAPTVMIEKVPNGEEAIAAFQTLEQYLGKKIFATMPIEAGGINSLLPLALAARLGLPVVDVDGMGRAFPELQMVTFYLDGISATPLVIADEKGNHSVLNTVNNMWAERIARAATIQMGGSVMMAIYPMVGKQLKESGIHHILKLEEDIGRIIREAKGTNANPIAEVLSLVGGFELFKGKVVDINRKTESGFARGTAHIQGFDLYHDQTLEIKFQNEHLLAKTPDQLLCVTPDLIAILDSETGLPITTEGLKYGARCVVIGIPCHPKWRTAKGIETCGPAYFGYDVDYVPVENLVKEGAQTKLEHHHHHH | soluble
MGHHHHHHSHIPFDYIVEKTVSTGVLVDVIGALLEVGNLTEDYRGLKLPFKIMDQYKEVLQCEAHNDQALEFQRFFQRLTGPQNVIALVSWRLSGIYKLKTLSNDPISKVIANPDIPEVEEIRVVVY | not soluble
MSINKIEEDRDISSDLEMKAKMYLVHRMDKAGPLTVKDVRILINKLSKDLQKNQLTLIDCQLIINLVESRFTLVKQATRYLQFFLNKLDGKSINPILIPLSNKPFWQNEPHPFDHYRSTDQLPEKVDIVIIGAGLTGASTAYHLIDAVKKRHLTVVLLDKGNPATEASGRNGGNFELLPENSVGIYSGLVSERFRFLKRCYPHVHPSILQIESEYHASLVFQFALKNRNRFKEIARKERIYCDLAAKGWLYIAHTEEEEQAICDEVTLAAQHGERIYIWSRKKIREQFGINSKFIGRFIPDDGTYNPFKYTCCLIKAAIKSGIKLYTFVKVQQIKSIDTEYHQLKTNMGLLKARQVIVATNAFTSELLPELRAIKPHQSQIAITDSTPDYCKGRLITSEDGPLYLNQPRVRSKNGLVPLLIGAGDDRPMKNPYYRKRSKKVHDLIVQQRDKYFPNLKGRPFSTEWVGALAFTPDQLPAIGYLSPGIIIVMCCNGYGGSYTTAAGLAAAEIALTGKNPPWLPADVFSPKRLLSDKPLFWEDSDSLWRIGKTLCTTLNNLNQLLAESLSYQSMYQPYSTISLLPHGHQEKNCNLDPLRVMHQLAIFRTFAYQELEMLIRYTSPVCLSKGEILFKQGDAGHSCFILIQGKINLYYEHAEGFTSMVAELEAGSVFGQMALFLENKRMATCQATENCSMLEIMVEPCKSLFIQQQALGIKLLRLLNQGVIDALHKLNKRLKYT | not soluble
MDERDVLWVGVCAMPKKVESEPMQRILAALTSSRVAHFEPMIFDAKTLFERPIHKWPVCDALIAFHSEGFPLERAIAYAELRRPYCLNGLREQRMLLDRSKVYEVLARERVPVPRHIVVRHDGADVGRTDTRFVEHDDYIEYCGERLFKPFVEKPIDAEDHRVCIYYARPLYGRRRLFRKTANQSSVFEPGWRRVRREGAFIYEEFIPSEHQSDIKVYAVGPEYAYAERRKSPVVDGIVERNAHGKELRFPVELSTAERCVAATITAAFRQFVCGFDLIRHADGNAFYVNDVNGFSFVKGSQSYYESCGRILAEHLARECARSAAVDGE | not soluble
MSLLDFGFDESRIYFTVTDRFFNGDKNNDDPHGNNYDKKNPYTYHGGDLKGLTDKISYLKELGINTIWITPIVENTDFNQMFSQGKTQYSCHGYWAKDFEKLDPHLGTMDDLKTLIDTAHDSGIKIMVDVVLNHAGYGMKNKDNSGANNSPTEEDIAKFKGMFRENPGNDFITQESAGLPDFKTEDPEVREKLIEWQTGWIERSKTEKGNTIDYFRVDTVKHVDNTTWKAFKNKLTEINPSFKTIGEYFGADINNDGGQLQNGQMDALLDFGYKGKARDFVNGNIEGTSAYLDDRASKISNTNLMGQFLSSHDEDGFLKTVGDDLGKQMLAASLQITDKGIPVIYYGEELGMSGWNGFEQGDQNRYDMDFERLNDPKYKKVHDHYEKLLNIRKEYSKIFSKGNRKTIAGNNEEGYSVVLRSYNGKEITPMNLSENNEEKNITNGQNLFVVLNTKNEDKDISFKTNFKEGEKVKDLYSGNEYSIGKDGKVTVKVPSKEGHHHHHH | not soluble
